B1: HDV Ribozyme (parent)
chain: GGCCGGCAUGGUCCCAGCCUCCUCGCUGGCGCCGGCUGGGCAACAUUCCGAGGGGACCGUCCCCUCGGUAAUGGCGAAUGGGACCCA

Variants of: B1
Test: self-cleavage, relative activity (ratio to wild type); higher = more cleavage; co-transcriptional

Variant	self-cleavage
GGCCGGCAUGGUCCCAGCCUCCUCGCUGGCGGCGGCUGGGCAACAUUCCGAGGGGACCGACCCCUCGGUAAUGGCGAAUGGGACCCA [C32G U60A]	0.131
GGCCGGCAUGGUCCCAGCCUCCUCGCUGGCGUCGGCUAGGCAACAUUCCGAGGGGACCGUCCCCUCGGUAAUGGCGAAUGGGACCCA [C32U G38A]	0.216
GGCCGGCAUGGUCCCAGCCUCCUCGCUGGCGUCGGCUGGGCAACUUUCCGAGGGGACCGUCCCCUCGGUAAUGGCGAAUGGGACCCA [C32U A45U]	0.631
GGCCGGCAUGGUCCCAGCCUCCUCGCUGGCGUCGGCUGGGCAACGUUCCGAGGGGACCGUCCCCUCGGUAAUGGCGAAUGGGACCCA [C32U A45G]	0.755
GGCCGGCAUGGUCCCAGCCUCCUCGCUGGCGUCGGCUGGGCAACCUUCCGAGGGGACCGUCCCCUCGGUAAUGGCGAAUGGGACCCA [C32U A45C]	0.291
GGCCGGCAUGGUCCCAGCCUCCUCGCUGGCGUCGGCUGGGCAACAUUCCGAGGGGACCGUCCCCUCGGUGAUGGCGAAUGGGACCCA [C32U A70G]	0.85
GGCCGGCAUGGUCCCAGCCUCCUCGCUGGCGUCGGCUGGGCAACAUUCCGAGGGGACCGUCCCCUCGGUUAUGGCGAAUGGGACCCA [C32U A70U]	0.892
GGCCGGCAUGGUCCCAGCCUCCUCGCUGGCGUCGGCUGGGCAACAUUCCGAGGGGACCGUCCCCUCGGUCAUGGCGAAUGGGACCCA [C32U A70C]	0.68
GGCCGGCAUGGUCCCAGCCUCCUCGCUGGCGUCGGCUGGGCAACAUUCCCAGGGGACCGUCCCCUCGGUAAUGGCGAAUGGGACCCA [C32U G50C]	0.764
GGCCGGCAUGGUCCCAGCCUCCUCGCUGGCGUCGGCUGGGCAACAUUCCGAGGGGACAGUCCCCUCGGUAAUGGCGAAUGGGACCCA [C32U C58A]	1
GGCCGGCAUGGUCCCAGCCUCCUCGCUGGCGGCGGCUGGGCAACAUUCCGAGGGGACCGUCCCCUCGGUAAUGGCGAAUGCGACCCA [C32G G81C]	0.0773
GGCCGGCAUGGUCCCAGCCUCCUCGCUGGCGGCGGCUGGGCAACAUUCCGAGGGGACCGUCCCCUCGGUAAUGGCGAAUGAGACCCA [C32G G81A]	0.0297
GGCCGGCAUGGUCCCAGCCUCCUCGCUGGCGGCGGCUGGGCAACAUCCCGAGGGGACCGUCCCCUCGGUAAUGGCGAAUGGGACCCA [C32G U47C]	0.0852
GGCCGGCAUGGUCCCAGCCUCCUCGCUGGCGUCGGCUGGGCAACAUUCCGAGGGGACCGUCCCCUAGGUAAUGGCGAAUGGGACCCA [C32U C66A]	0.991
GGCCGGCAUGGUCCCAGCCUCCUCGCUGGCGUCGGCUGGGCAACAUUCCGAGGGGACCGUCCCCUGGGUAAUGGCGAAUGGGACCCA [C32U C66G]	0.739
GGCCGGCAUGGUCCCAGCCUCCUCGCUGGCGGCGGCUGGGCAACAUUCCGAGGGGACCGUCCCCUCGGUAAGGGCGAAUGGGACCCA [C32G U72G]	0.0519
GGCCGGCAUGGUCCCAGCCUCCUCGCUGGCGUCGGCUGAGCAACAUUCCGAGGGGACCGUCCCCUCGGUAAUGGCGAAUGGGACCCA [C32U G39A]	0.192
GGCCGGCAUGGUCCCAGCCUCCUCGCUGGCGUCGGCUGGGCAACAUUCCGAGGGGACCGUCCCCUCGGUAAUGGUGAAUGGGACCCA [C32U C75U]	0.315
GGCCGGCAUGGUCCCAGCCUCCUCGCUGGCGUCGGCUGGGCAACAUUCCGAGGGGACCGUCCCCUCGGUACUGGCGAAUGGGACCCA [C32U A71C]	0.665
GGCCGGCAUGGUCCCAGCCUCCUCGCUGGCGUCGGCUGGGCAACAUUCCGAGGGGACCGUCCCCUCGGUAAUGGCGGAUGGGACCCA [C32U A77G]	0.73
GGCCGGCAUGGUCCCAGCCUCCUCGCUGGCGUCGGCUGGGCAACAUUCCGAGGGGACCGUCCUCUCGGUAAUGGCGAAUGGGACCCA [C32U C63U]	0.817
GGCCGGCAUGGUCCCAGCCUCCUCGCUGGCGUCGGCUGGGCAACAUUCCGAGGGGACCGUCCACUCGGUAAUGGCGAAUGGGACCCA [C32U C63A]	0.701

Variant	self-cleavage
GGCCGGCAUGGUCCCAGCCUCCUCGCUGGCGUCGGCUGGGCAACAUUCCGAGGGGACCGUCCCUUCGGUAAUGGCGAAUGGGACCCA [C32U C64U]	0.831
GGCCGGCAUGGUCCCAGCCUCCUCGCUGGCGGCGGCUGGGCAACAUUCCGAGGGGACCGUCCCCUCGGAAAUGGCGAAUGGGACCCA [C32G U69A]	0.148
GGCCGGCAUGGUCCCAGCCUCCUCGCUGGCGGCGGCUGGGCAACAUUCCGAGGGGACCGUCCCCUCGGCAAUGGCGAAUGGGACCCA [C32G U69C]	0.0639
GGCCGGCAUGGUCCCAGCCUCCUCGCUGGCGGCGGCUGGGCAACAUUCCGAGGGGACCGUCCCCUCGGGAAUGGCGAAUGGGACCCA [C32G U69G]	0.0504
GGCCGGCAUGGUCCCAGCCUCCUCGCUGGCGUCGGCUGGGCAACAUUCCGAGGGGACCGUCACCUCGGUAAUGGCGAAUGGGACCCA [C32U C62A]	0.906
GGCCGGCAUGGUCCCAGCCUCCUCGCUGGCGUCGGCUGGGCAACAUUCCGAGGGGACCGUCUCCUCGGUAAUGGCGAAUGGGACCCA [C32U C62U]	1.13
GGCCGGCAUGGUCCCAGCCUCCUCGCUGGCGUCGGCUGGUCAACAUUCCGAGGGGACCGUCCCCUCGGUAAUGGCGAAUGGGACCCA [C32U G40U]	0.758
GGCCGGCAUGGUCCCAGCCUCCUCGCUGGCGUCGGCUGGGCAACAUUCCGAGGGGACCGUCCCCUCGGUAAUGGCGAAUGGGUCCCA [C32U A83U]	0.456
GGCCGGCAUGGUCCCAGCCUCCUCGCUGGCGGCGGCUGGGCAACAUUCCGAGGGGACCGUCCCCGCGGUAAUGGCGAAUGGGACCCA [C32G U65G]	0.119
GGCCGGCAUGGUCCCAGCCUCCUCGCUGGCGUCGGCUGGGGAACAUUCCGAGGGGACCGUCCCCUCGGUAAUGGCGAAUGGGACCCA [C32U C41G]	0.429
GGCCGGCAUGGUCCCAGCCUCCUCGCUGGCGUCGGCUGGGUAACAUUCCGAGGGGACCGUCCCCUCGGUAAUGGCGAAUGGGACCCA [C32U C41U]	0.629
GGCCGGCAUGGUCCCAGCCUCCUCGCUGGCGGCGGCUGGGCAACAAUCCGAGGGGACCGUCCCCUCGGUAAUGGCGAAUGGGACCCA [C32G U46A]	0.0332
GGCCGGCAUGGUCCCAGCCUCCUCGCUGGCGUCGGCUGGGCAACAUUCCGAGGGGACCGUCCCCUCGGUAAUGGCGAAUGGGACCUA [C32U C86U]	0.686
GGCCGGCAUGGUCCCAGCCUCCUCGCUGGCGUCGGCUGGGCAACAUUCUGAGGGGACCGUCCCCUCGGUAAUGGCGAAUGGGACCCA [C32U C49U]	0.803
GGCCGGCAUGGUCCCAGCCUCCUCGCUGGCGUCGGCUGGGCAACAUUCCGAGGGGACCGUCCCCUCGGUAAUGGCGACUGGGACCCA [C32U A78C]	0.177
GGCCGGCAUGGUCCCAGCCUCCUCGCUGGCGUCGGCUGGGCAACAUUCCGAGGGGACCGUCCCCUCGGUAAUGGCGAUUGGGACCCA [C32U A78U]	0.178
GGCCGGCAUGGUCCCAGCCUCCUCGCUGGCGGCGGCUGGGCAACAUUCCGAGGGGACCGUCCCCUCGGUAAUGGCGAAUUGGACCCA [C32G G80U]	0.0831
GGCCGGCAUGGUCCCAGCCUCCUCGCUGGCGUUGGCUGGGCAACAUUCCGAGGGGACCGUCCCCUCGGUAAUGGCGAAUGGGACCCA [C32U C33U]	0.166
GGCCGGCAUGGUCCCAGCCUCCUCGCUGGCGUGGGCUGGGCAACAUUCCGAGGGGACCGUCCCCUCGGUAAUGGCGAAUGGGACCCA [C32U C33G]	0.117
GGCCGGCAUGGUCCCAGCCUCCUCGCUGGCGUAGGCUGGGCAACAUUCCGAGGGGACCGUCCCCUCGGUAAUGGCGAAUGGGACCCA [C32U C33A]	0.161
GGCCGGCAUGGUCCCAGCCUCCUCGCUGGCGUCGACUGGGCAACAUUCCGAGGGGACCGUCCCCUCGGUAAUGGCGAAUGGGACCCA [C32U G35A]	0.326
GGCCGGCAUGGUCCCAGCCUCCUCGCUGGCGUCGGCUGGGCAACAUUCCGAGGGGCCCGUCCCCUCGGUAAUGGCGAAUGGGACCCA [C32U A56C]	1.12

Variant	self-cleavage
GGCCGGCAUGGUCCCAGCCUCCUCGCUGGCGUCGGCUGGGCCACAUUCCGAGGGGACCGUCCCCUCGGUAAUGGCGAAUGGGACCCA [C32U A42C]	0.233
GGCCGGCAUGGUCCCAGCCUCCUCGCUGGCGGCGGCUGGGCAACAUUCCGAGGGGACCGUCCCCUCGGUAAUGGCGAAUGGUACCCA [C32G G82U]	0.228
GGCCGGCAUGGUCCCAGCCUCCUCGCUGGCGGCGGCUGGGCAACAUUCCGAGGGGACCGUCCCCUCGGUAAUGGCGAAUGGAACCCA [C32G G82A]	0.0997
GGCCGGCAUGGUCCCAGCCUCCUCGCUGGCGUCGGCUGGGCACCAUUCCGAGGGGACCGUCCCCUCGGUAAUGGCGAAUGGGACCCA [C32U A43C]	0.196
GGCCGGCAUGGUCCCAGCCUCCUCGCUGGCGUCGGCUGGGCAACAUUCCGAGGGGACCGUCCCCUCGGUAAUGGCGAAUGGGACGCA [C32U C85G]	0.831
GGCCGGCAUGGUCCCAGCCUCCUCGCUGGCGUCGGCUGGGCAACAUUCCGAGGGGACCGUCCCCUCGGUAAUGGCGAAUGGGACACA [C32U C85A]	0.849
GGCCGGCAUGGUCCCAGCCUCCUCGCUGGCGUCGGCUGGGCAACAUUCCGGGGGGACCGUCCCCUCGGUAAUGGCGAAUGGGACCCA [C32U A51G]	0.92
GGCCGGCAUGGUCCCAGCCUCCUCGCUGGCGUCGGCUGGGCAACAUUCCGCGGGGACCGUCCCCUCGGUAAUGGCGAAUGGGACCCA [C32U A51C]	0.541
GGCCGGCAUGGUCCCAGCCUCCUCGCUGGCGUCGGCUGGGCAAAAUUCCGAGGGGACCGUCCCCUCGGUAAUGGCGAAUGGGACCCA [C32U C44A]	0.243
GGCCGGCAUGGUCCCAGCCUCCUCGCUGGCGUCGGCUGGGCAACAUUCCGAGCGGACCGUCCCCUCGGUAAUGGCGAAUGGGACCCA [C32U G53C]	0.846
GGCCGGCAUGGUCCCAGCCUCCUCGCUGGCGUCGGCUGGGCAACAUUCCGAGGGGACCGUCCCCUCGGUAAUGGCGAAUGGGACCCU [C32U A87U]	1.03
GGCCGGCAUGGUCCCAGCCUCCUCGCUGGCGUCGGCUGGGCAACAUUCCGAGGGGACCGUCCCCUCGGUAAUGGCGAAUGGGACCCG [C32U A87G]	0.787
GGCCGGCAUGGUCCCAGCCUCCUCGCUGGCGUCGGGUGGGCAACAUUCCGAGGGGACCGUCCCCUCGGUAAUGGCGAAUGGGACCCA [C32U C36G]	0.0923
GGCCGGCAUGGUCCCAGCCUCCUCGCUGGCGUCGGCUGGGCAACAUUCCGAGGGGACCGUUCCCUCGGUAAUGGCGAAUGGGACCCA [C32U C61U]	0.817
GGCCGGCAUGGUCCCAGCCUCCUCGCUGGCGUCGGCUGGGCAACAUUCCGAGGGGACCGUACCCUCGGUAAUGGCGAAUGGGACCCA [C32U C61A]	0.841
GGCCGGCAUGGUCCCAGCCUCCUCGCUGGCGGCGGCAGGGCAACAUUCCGAGGGGACCGUCCCCUCGGUAAUGGCGAAUGGGACCCA [C32G U37A]	0.293
GGCCGGCAUGGUCCCAGCCUCCUCGCUGGCGUCGGCUGGGCAACAUUUCGAGGGGACCGUCCCCUCGGUAAUGGCGAAUGGGACCCA [C32U C48U]	0.69
GGCCGGCAUGGUCCCAGCCUCCUCGCUGGCGGCGGCUGGGCAACAUUCCGAGGGGACCGUCCCCUCGGUAAUGGCGAACGGGACCCA [C32G U79C]	0.0205
GGCCGGCAUGGUCCCAGCCUCCUCGCUGGCGUCGGCUGGGCAACAUUCCGAGGGGACCGUCCCCUCGGUAAUGGCGAAUGGGAUCCA [C32U C84U]	0.763
GGCCGGCAUGGUCCCAGCCUCCUCGCUGGCGUCGGCUGGGCAACAUUCCGAGGGGACCGUCCCCUCGGUAAUGGCGAAUGGGAGCCA [C32U C84G]	0.399

Reference: the RNAGym collection of RNA variant scans (doi:10.7554/elife.80360)
